The results in this text go back to PMC8565334, “The horizontal transfer of Pseudomonas aeruginosa PA14 ICE PAPI-1 is controlled by a transcriptional triad between TprA, NdpA2 and MvaT”.

B1: R3.4 (dsDNA)
DNA 1: ATTCTAAAACGATTAGAACTTCTATTTTATCCA
DNA 2: TGGATAAAATAGAAGTTCTAATCGTTTTAGAAT
B2: R3.2 (tprA-BS) (dsDNA)
DNA 1: AGTATTTAAAGCTCAATTAGCACCCCGTACTGT
DNA 2: ACAGTACGGGGTGCTAATTGAGCTTTAAATACT
B3: R3.3 (dsDNA)
DNA 1: TACTGTCTGACCTGAGTTCAACAAAGCATTCTA
DNA 2: TAGAATGCTTTGTTGAACTCAGGTCAGACAGTA
B4: R3.1 (dsDNA)
DNA 1: AATTTAGCCCAATAGTATTTAAAGCTCAATTAGCAC
DNA 2: GTGCTAATTGAGCTTTAAATACTATTGGGCTAAATT
B5: R5 (dsDNA)
DNA 1: CCTAGTCATCGAGAAATCCCCTCCCCTGTTGCCGAGTATTTCCTGCTGATGCGTGGCGGATGGCCTGCCACTGTGTGCCCCATCATCAAAGGGGGCCTCA
DNA 2: TGAGGCCCCCTTTGATGATGGGGCACACAGTGGCAGGCCATCCGCCACGCATCAGCAGGAAATACTCGGCAACAGGGGAGGGGATTTCTCGATGACTAGG
B6: R1 (dsDNA)
DNA 1: TTGCAGGGGTTTCGGAGAAAAAACCTGTGACCCAGAACTCTTTTTCCGTATATTTTAAAGCGAAGTCTTCAACAAGCCTTACCGAGAAAGGAAACAGGAT
DNA 2: ATCCTGTTTCCTTTCTCGGTAAGGCTTGTTGAAGACTTCGCTTTAAAATATACGGAAAAAGAGTTCTGGGTCACAGGTTTTTTCTCCGAAACCCCTGCAA
B7: R2 (dsDNA)
DNA 1: AGTACTGAATCCAGCCACTACCAAGGGGTTAACTGATGCCAGGCTTGGAAATACGGAGCCTTTCCAAGCGACTAAAACAAAGAAGAAAGCTCCCCAGAAA
DNA 2: TTTCTGGGGAGCTTTCTTCTTTGTTTTAGTCGCTTGGAAAGGCTCCGTATTTCCAAGCCTGGCATCAGTTAACCCCTTGGTAGTGGCTGGATTCAGTACT
B8: R4 (dsDNA)
DNA 1: TTTCTAACAACGATTCCCACCTGGCTCGCTTTAGGCGTAACATGAAAAACCTTCATCGCTCCTAATCCGTTTCCCTTACGCCTGCCTCGCTCACCCTCTG
DNA 2: CAGAGGGTGAGCGAGGCAGGCGTAAGGGAAACGGATTAGGAGCGATGAAGGTTTTTCATGTTACGCCTAAAGCGAGCCAGGTGGGAATCGTTGTTAGAAA
B9: R3 (dsDNA)
DNA 1: AATTTAGCCCAATAGTATTTAAAGCTCAATTAGCACCCCGTACTGTCTGACCTGAGTTCAACAAAGCATTCTAAAACGATTAGAACTTCTATTTTATCCA
DNA 2: TGGATAAAATAGAAGTTCTAATCGTTTTAGAATGCTTTGTTGAACTCAGGTCAGACAGTACGGGGTGCTAATTGAGCTTTAAATACTATTGGGCTAAATT

In one series the target is T1, TprA (Pseudomonas aeruginosa PA14, UniProt A0A0H2ZFZ8 1-84). Briefly: EMSA. The note with it: protein: recombinant; tags: His-tag removed by TEV; chain copies: 2; label: 5'-Cy5 on strand 1; blunt. For orientation: Mobility shift assays separate free from complexed probe on a gel.
Consider B1, for which the binding result is listed as “no binding”. As for B2, the binding result is recorded as “binds”.

As to B3, the binding result was “no binding”. With B4, the binding result was “no binding”.

The target of the next series is T1, TprA. The series is described as follows: EMSA; 1 uM TprA. The note with it: protein: recombinant; tags: His-tag removed by TEV; chain copies: 2; label: 5'-Cy5 on strand 1; blunt.
For the molecule B5, the binding result is on record as “no binding”. In the case of B6, the binding result is recorded as “no binding”. On the same count and under the same terms, to B7 belongs “no binding”. The same measure, in the same setting: to B8 belongs “no binding”; to B9, “binds”.
